Values of other authors, collected in article PMC12805357, “Cooperative ligand binding in a bacterial heme-based oxygen sensor” (The Journal of Biological Chemistry, 2025).

How the values were obtained:
[1] = HemAT-Bs
[2] = design: method as in earlier work; settings: myoglobins; ref 7 of the supplement (Faulkner et al., 1995)

Molecule | n (Hill coefficient), O2 binding [1] | Kd ([1]; read-out: Kd, equilibrium oxygen affinity) [µM] | Midpoint 1 (mV vs SHE) [2] [mV vs SHE]
HemAT-Bs: globin-coupled sensor from Bacillus subtilis, MCP output domain (protein, UniProt O07621 1-432, looked up) Heme-based aerotactic …: MLFKKDRKQETAYFSDSNGQQKNRIQLTNKHADVKKQLKMVRLGDAELYVLEQLQPLIQENIVNIVDAFYKNLDHESSLMDIINDHSSVDRLKQTLKRHIQEMFAGVIDDEFIEKRNRIASIHLRIGLLPKWYMGAFQELLLSMIDIYEASITNQQELLKAIKATTKILNLEQQLVLEAFQSEYNQTRDEQEEKKNLLHQKIQETSGSIANLFSETSRSVQELVDKSEGISQASKAGTVTSSTVEEKSIGGKKELEVQQKQMNKIDTSLVQIEKEMVKLDEIAQQIEKIFGIVTGIAEQTNLLSLNASIESARAGEHGKGFAVVANEVRKLSEDTKKTVSTVSELVNNTNTQINIVSKHIKDVNELVSESKEKMTQINRLFDEIVHSMKISKEQSGKIDVDLQAFLGGLQEVSRAVSHVAASVDSLVILTEE | 0.45 | 10 | 
hhMb: myoglobin comparison protein listed as hhMb in Table S2, literature values (protein, UniProt P68082 2-154, looked up) Myoglobin: GLSDGEWQQVLNVWGKVEADIAGHGQEVLIRLFTGHPETLEKFDKFKHLKTEAEMKASEDLKKHGTVVLTALGGILKKKGHHEAELKPLAQSHATKHKIPIKYLEFISDAIIHVLHSKHPGDFGADAQGAMTKALELFRNDIAAKYKELGFQG |  |  | 37
